Experimental data reported in patent publication US20250002610A1 (Genmab, published 2025).

T1: human DR4 (Death Receptor 4), cell surface expressed on human tumor cell lines (human, UniProt O00220 24-468)
T1 construct: also called TNFRSF10A; TRAIL-R1
T1 sequence: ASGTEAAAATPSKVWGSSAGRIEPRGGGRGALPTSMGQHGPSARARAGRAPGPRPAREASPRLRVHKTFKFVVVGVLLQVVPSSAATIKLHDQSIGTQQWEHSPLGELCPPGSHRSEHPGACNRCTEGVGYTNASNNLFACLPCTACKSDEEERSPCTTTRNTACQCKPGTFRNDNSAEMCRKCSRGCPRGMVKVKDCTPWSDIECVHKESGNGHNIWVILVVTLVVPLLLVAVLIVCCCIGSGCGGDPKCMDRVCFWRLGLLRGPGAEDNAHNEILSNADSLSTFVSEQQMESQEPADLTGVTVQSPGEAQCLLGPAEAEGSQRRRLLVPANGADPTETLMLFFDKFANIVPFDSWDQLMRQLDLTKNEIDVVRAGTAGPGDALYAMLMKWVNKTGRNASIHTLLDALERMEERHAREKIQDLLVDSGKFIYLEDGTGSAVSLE

T2: human FAPα (Fibroblast activation protein alpha), cell surface expressed (human, UniProt Q12884 1-760)
T2 construct: Endogenous on human lung fibroblasts and CAFs
T2 sequence: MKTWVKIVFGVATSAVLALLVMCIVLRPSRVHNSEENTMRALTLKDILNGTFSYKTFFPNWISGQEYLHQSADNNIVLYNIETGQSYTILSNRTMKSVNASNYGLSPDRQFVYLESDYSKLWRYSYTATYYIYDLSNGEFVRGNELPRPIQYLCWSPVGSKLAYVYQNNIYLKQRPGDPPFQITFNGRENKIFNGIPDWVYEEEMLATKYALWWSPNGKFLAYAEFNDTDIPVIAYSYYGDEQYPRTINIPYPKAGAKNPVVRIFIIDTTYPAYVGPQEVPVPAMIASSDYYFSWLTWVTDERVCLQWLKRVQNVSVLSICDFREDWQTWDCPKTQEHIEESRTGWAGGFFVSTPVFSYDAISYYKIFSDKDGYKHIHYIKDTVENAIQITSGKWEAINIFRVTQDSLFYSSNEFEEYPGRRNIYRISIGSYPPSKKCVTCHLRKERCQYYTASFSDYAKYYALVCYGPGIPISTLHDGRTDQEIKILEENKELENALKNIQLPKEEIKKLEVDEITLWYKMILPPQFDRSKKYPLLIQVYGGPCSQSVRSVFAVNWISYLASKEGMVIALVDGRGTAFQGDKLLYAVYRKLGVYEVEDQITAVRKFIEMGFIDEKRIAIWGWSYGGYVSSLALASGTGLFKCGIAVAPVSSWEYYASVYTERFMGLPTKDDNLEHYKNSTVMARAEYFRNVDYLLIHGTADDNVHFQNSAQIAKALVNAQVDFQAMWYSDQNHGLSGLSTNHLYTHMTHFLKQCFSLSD

B1: IgG1-DR4-FERR (antibody, V domains shown)
VH: QVQLQESGPGLVKPSGTLSLTCAVSGGSISSYSWWSWIRQPPGKGLEWIGELYHSGSTNYNPSLKSRVTISVDKSKNQFSLKLRSVTAADTAVYYCVRGVATIDYWGQGTLVTVSS
VL: QSALTQPPSASGSPGQSVTISCTGTSSDVGGYNFVSWYQQDPGKAPKLLIYEVTKRPSGVPDRFSGSKSGNTASLTVSGLQAEDEADYYCSSYAGSNNVMFGGGTKLTVLG
notes: Bivalent monoclonal IgG1 lambda
B2: BisG1-FAPα-FERL/b12-FERR (bispecific antibody, human IgG1, kappa)
heavy 1: EVQLLESGGGLVQPGGSPRLSCEASGFTFSSYALSWVRQAPGKGLEWVSAISGSGGGRYYADSVKGRFTISRDNSKNTLFLQMNSLRAEDTAVYYCAKEGYSSSGTYWDHWGQGTLVTVSSASTKGPSVFPLAPSSKSTSGGTAALGCLVKDYFPEPVTVSWNSGALTSGVHTFPAVLQSSGLYSLSSVVTVPSSSLGTQTYICNVNHKPSNTKVDKRVEPKSCDKTHTCPPCPAPEFERGPSVFLFPPKPKDTLMISRTPEVTCVVVDVSHEDPEVKFNWYVDGVEVHNAKTKPREEQYNSTYRVVSVLTVLHQDWLNGKEYKCKVSNKALPAPIEKTISKAKGQPREPQVYTLPPSREEMTKNQVSLTCLVKGFYPSDIAVEWESNGQPENNYKTTPPVLDSDGSFLLYSKLTVDKSRWQQGNVFSCSVMHEALHNHYTQKSLSLSPG
light 1: AIQMTQSPSSVSASVGDRVTITCRASQGVSSWLAWYQQKPGRAPKLLIYVASTLQSGVPSRFSGSGSGTDFTLTINSLQPEDFATYYCQQANSFPPTFGQGTRLEMKRTVAAPSVFIFPPSDEQLKSGTASVVCLLNNFYPREAKVQWKVDNALQSGNSQESVTEQDSKDSTYSLSSTLTLSKADYEKHKVYACEVTHQGLSSPVTKSFNRGEC
heavy 2: QVQLVQSGAEVKKPGASVKVSCQASGYRFSNFVIHWVRQAPGQRFEWMGWINPYNGNKEFSAKFQDRVTFTADTSANTAYMELRSLRSADTAVYYCARVGPYSWDDSPQDNYYMDVWGKGTTVIVSSASTKGPSVFPLAPSSKSTSGGTAALGCLVKDYFPEPVTVSWNSGALTSGVHTFPAVLQSSGLYSLSSVVTVPSSSLGTQTYICNVNHKPSNTKVDKRVEPKSCDKTHTCPPCPAPEFERGPSVFLFPPKPKDTLMISRTPEVTCVVVDVSHEDPEVKFNWYVDGVEVHNAKTKPREEQYNSTYRVVSVLTVLHQDWLNGKEYKCKVSNKALPAPIEKTISKAKGQPREPQVYTLPPSREEMTKNQVSLTCLVKGFYPSDIAVEWESNGQPENNYKTTPPVLDSDGSFFLYSRLTVDKSRWQQGNVFSCSVMHEALHNHYTQKSLSLSPG
light 2: EIVLTQSPGTLSLSPGERATFSCRSSHSIRSRRVAWYQHKPGQAPRLVIHGVSNRASGISDRFSGSGSGTDFTLTITRVEPEDFALYYCQVYGASSYTFGQGTKLERKRTVAAPSVFIFPPSDEQLKSGTASVVCLLNNFYPREAKVQWKVDNALQSGNSQESVTEQDSKDSTYSLSSTLTLSKADYEKHKVYACEVTHQGLSSPVTKSFNRGEC
B3: BisG1-b12-FERL/DR4-FERR (bispecific antibody, human IgG1, kappa, lambda)
heavy 1: QVQLVQSGAEVKKPGASVKVSCQASGYRFSNFVIHWVRQAPGQRFEWMGWINPYNGNKEFSAKFQDRVTFTADTSANTAYMELRSLRSADTAVYYCARVGPYSWDDSPQDNYYMDVWGKGTTVIVSSASTKGPSVFPLAPSSKSTSGGTAALGCLVKDYFPEPVTVSWNSGALTSGVHTFPAVLQSSGLYSLSSVVTVPSSSLGTQTYICNVNHKPSNTKVDKRVEPKSCDKTHTCPPCPAPEFERGPSVFLFPPKPKDTLMISRTPEVTCVVVDVSHEDPEVKFNWYVDGVEVHNAKTKPREEQYNSTYRVVSVLTVLHQDWLNGKEYKCKVSNKALPAPIEKTISKAKGQPREPQVYTLPPSREEMTKNQVSLTCLVKGFYPSDIAVEWESNGQPENNYKTTPPVLDSDGSFLLYSKLTVDKSRWQQGNVFSCSVMHEALHNHYTQKSLSLSPG
light 1: EIVLTQSPGTLSLSPGERATFSCRSSHSIRSRRVAWYQHKPGQAPRLVIHGVSNRASGISDRFSGSGSGTDFTLTITRVEPEDFALYYCQVYGASSYTFGQGTKLERKRTVAAPSVFIFPPSDEQLKSGTASVVCLLNNFYPREAKVQWKVDNALQSGNSQESVTEQDSKDSTYSLSSTLTLSKADYEKHKVYACEVTHQGLSSPVTKSFNRGEC
heavy 2: QVQLQESGPGLVKPSGTLSLTCAVSGGSISSYSWWSWIRQPPGKGLEWIGELYHSGSTNYNPSLKSRVTISVDKSKNQFSLKLRSVTAADTAVYYCVRGVATIDYWGQGTLVTVSSASTKGPSVFPLAPSSKSTSGGTAALGCLVKDYFPEPVTVSWNSGALTSGVHTFPAVLQSSGLYSLSSVVTVPSSSLGTQTYICNVNHKPSNTKVDKRVEPKSCDKTHTCPPCPAPEFERGPSVFLFPPKPKDTLMISRTPEVTCVVVDVSHEDPEVKFNWYVDGVEVHNAKTKPREEQYNSTYRVVSVLTVLHQDWLNGKEYKCKVSNKALPAPIEKTISKAKGQPREPQVYTLPPSREEMTKNQVSLTCLVKGFYPSDIAVEWESNGQPENNYKTTPPVLDSDGSFFLYSRLTVDKSRWQQGNVFSCSVMHEALHNHYTQKSLSLSPG
light 2: QSALTQPPSASGSPGQSVTISCTGTSSDVGGYNFVSWYQQDPGKAPKLLIYEVTKRPSGVPDRFSGSKSGNTASLTVSGLQAEDEADYYCSSYAGSNNVMFGGGTKLTVLGQPKAAPSVTLFPPSSEELQANKATLVCLISDFYPGAVTVAWKADSSPVKAGVETTTPSKQSNNKYAASSYLSLTPEQWKSHRSYSCQVTHEGSTVEKTVAPTECS
notes: Fab-arm exchange of IgG1-b12-FERL and IgG1-DR4-FERR; also called bsIgG1-ctrl-FERLxDR4-FERR
B4: IgG1-FAPα-FERL (antibody)
heavy: EVQLLESGGGLVQPGGSPRLSCEASGFTFSSYALSWVRQAPGKGLEWVSAISGSGGGRYYADSVKGRFTISRDNSKNTLFLQMNSLRAEDTAVYYCAKEGYSSSGTYWDHWGQGTLVTVSSASTKGPSVFPLAPSSKSTSGGTAALGCLVKDYFPEPVTVSWNSGALTSGVHTFPAVLQSSGLYSLSSVVTVPSSSLGTQTYICNVNHKPSNTKVDKRVEPKSCDKTHTCPPCPAPEFERGPSVFLFPPKPKDTLMISRTPEVTCVVVDVSHEDPEVKFNWYVDGVEVHNAKTKPREEQYNSTYRVVSVLTVLHQDWLNGKEYKCKVSNKALPAPIEKTISKAKGQPREPQVYTLPPSREEMTKNQVSLTCLVKGFYPSDIAVEWESNGQPENNYKTTPPVLDSDGSFLLYSKLTVDKSRWQQGNVFSCSVMHEALHNHYTQKSLSLSPG
light: AIQMTQSPSSVSASVGDRVTITCRASQGVSSWLAWYQQKPGRAPKLLIYVASTLQSGVPSRFSGSGSGTDFTLTINSLQPEDFATYYCQQANSFPPTFGQGTRLEMKRTVAAPSVFIFPPSDEQLKSGTASVVCLLNNFYPREAKVQWKVDNALQSGNSQESVTEQDSKDSTYSLSSTLTLSKADYEKHKVYACEVTHQGLSSPVTKSFNRGEC
notes: Bivalent monoclonal IgG1 kappa

Columns and labels:
[1] = biological target: T1, human DR4 (Death Receptor 4), cell …; assay: flow cytometry, HCT-116 cells, n = 2
[2] = biological target: T1, human DR4 (Death Receptor 4), cell …; assay: flow cytometry, MDA-MB-231 cells, N = 2
[3] = biological target: T2, human FAPα (Fibroblast activation …); assay: flow cytometry, human lung fibroblasts, n = 2
Experimental: Binding of bispecific or monoclonal antibodies carrying the anti-FAPα arm derived from IgG1-FAPα-FERL (BisG1-FAPα-FERL/DR4-FERR, BisG1-FAPα-FERL/b12-FERR, and IgG1-FAPα-FERL) to cell surface expressed human FAPα was analyzed by flow cytometry using human lung fibroblasts and CAFs, which endogenously express FAPα. BisG1-b12-FERL/b12-FERR was used as negative control.
Human lung fibroblasts and CAFs (50,000 cells/well) were seeded in 96-Well round bottom plates (Greiner Bio-one, Cat #650101). Antibody dilutions were prepared using fluorescence-activated cell sorting (FACS) buffer, consisting of phosphate buffer saline (PBS, Lonza, Cat #BE17-517Q)+1% Bovine Serum Albumin (BSA, Roche, Cat #10735086001)+0.02% Sodium Azide (Bio-World, Cat #41920044-3). Plates were centrifuged, supernatant was removed, cells were resuspended in 50 μL of human Fc Block (BD, Cat #564220, diluted 1:100 in FACS buffer) and 50 μL of viability stain TO-PRO-3 Iodide (Thermo Fisher, Cat #T3605, diluted 1: 25,000 in FACS buffer), and incubated for 15 min at 4° C. Plates were washed three times with FACS buffer. Plates were centrifuged, supernatant was removed, cells were resuspended in 50 μL of antibody dilutions (concentration range 90-0.0005 μg/mL, three-fold dilution steps using FACS buffer) of BisG1-FAPα-FERL/DR4-FERR, BisG1-FAPα-FERL/b12-FERR, BisG1-b12-FERL/b12-FERR (top six concentrations only for CAFs culture) or IgG1-FAPα-FERL (top four concentrations only for CAFs culture) and incubated for 30 min at 4° C. Cells were washed three times with FACS buffer and resuspended in 50 μL of Fluorescein isothiocyanate (FITC)-labeled polyclonal antibody goat anti-mouse IgG1 (Jackson Immuno Research, Cat #109-096-097, diluted 1:100 in FACS buffer). […] Antibody binding to viable cells (TO-PRO-3 negative) was analyzed by flow cytometry on a FACSCelesta™ (BD biosciences) and data were processed using FlowJo_v10.8.1 (FlowJo LLC). Geomean fluorescence intensity, gMFI, was determined and visualized using GraphPad Prism.

Binder | EC50 [1] [µg/mL] | EC50 [2] [µg/mL] | EC50 [3] [µg/mL] | Max MFI (at 90 µg/mL) [2] [MFI]
B1 | 0.16 | 0.26 |  | 
B2 |  |  | 0.034 | 
B3 | 0.65 | 0.95 |  | 7840
B4 |  |  | 0.006 | 
